This note sets out measurements from US20230416366A1 (Hoffmann-La Roche, published 2023).

The labels stand for the following.
B1: CD28(SA)_variant_25 (antibody, human IgG1, kappa, L234A L235A)
heavy: not shown
light: not shown
chain: DKTHTCPPCPAPEAAGGPSVFLFPPKPKDTLMISRTPEVTCVVVDVSHEDPEVKFNWYVDGVEVHNAKTKPREEQYNSTYRVVSVLTVLHQDWLNGKEYKCKVSNKALGAPIEKTISKAKGQPREPQVCTLPPSRDELTKNQVSLSCAVKGFYPSDIAVEWESNGQPENNYKTTPPVLDSDGSFFLVSKLTVDKSRWQQGNVFSCSVMHEALHNRFTQKSLSLSP
notes: monovalent one-armed IgG-like construct (hu IgG1 PGLALA), tested from HEK supernatant without purification; also called P1AE3081
B2: CD28(SA)_variant_27 (antibody, human IgG1, kappa, L234A L235A)
heavy: not shown
light: not shown
chain: B1 chain
notes: monovalent one-armed IgG-like construct (hu IgG1 PGLALA), tested from HEK supernatant without purification; also called P1AE3083
B3: CD28(SA)_variant_31 (antibody, human IgG1, kappa, L234A L235A)
heavy: not shown
light: not shown
chain: B1 chain
notes: monovalent one-armed IgG-like construct (hu IgG1 PGLALA), tested from HEK supernatant without purification; also called P1AE3087
B4: CD28(SA)_variant_26 (antibody, human IgG1, kappa, L234A L235A)
heavy: not shown
light: not shown
chain: B1 chain
notes: monovalent one-armed IgG-like construct (hu IgG1 PGLALA), tested from HEK supernatant without purification; also called P1AE3082
B5: CD28(SA)_variant_29 (antibody, human IgG1, kappa, L234A L235A)
heavy: not shown
light: not shown
chain: B1 chain
notes: monovalent one-armed IgG-like construct (hu IgG1 PGLALA), tested from HEK supernatant without purification; also called P1AE3085
B6: CD28(SA)_variant_30 (antibody, human IgG1, kappa, L234A L235A)
heavy: not shown
light: DIQMTQSPSSLSASVGDRVTITCRASQNIYVWLNWYQQKPGKAPKLLIYKASNLYSGVPSRFSGSRSGTDFTLTISSLQPEDFATYYCQQGQTYPYTFGQGTKLEIKRTVAAPSVFIFPPSDRKLKSGTASVVCLLNNFYPREAKVQWKVDNALQSGNSQESVTEQDSKDSTYSLSSTLTLSKADYEKHKVYACEVTHQGLSSPVTKSFNRGEC
chain: B1 chain
notes: monovalent one-armed IgG-like construct (hu IgG1 PGLALA), tested from HEK supernatant without purification; also called P1AE3086

This experiment has as its target T1, human CD28 on Jurkat reporter cells (human, UniProt P10747 19-220).
T1 construct: Endogenous CD28 of Jurkat NFAT / Jurkat IL2 reporter cells; also called hu CD28
The experiment can be described thus: flow cytometry, MFI (PE) of PE-conjugated anti-human secondary, CHO cells stably overexpressing human CD28; monovalent one-armed IgG from supernatant. In general terms: A flow cytometer gives signals particle by particle.
Protocol: Binding was assessed by flow cytometry with a FACS Fortessa (BD, Software FACS Diva). Binding curves were obtained using GraphPadPrism6.
As to B1, the binding result is listed as “binds”.
As for B2, the entry is “binds”; as for B3, “binds”.
Under B4 stands “binds”.
In the case of B5, the binding result is recorded as “binds”.
Consider B6, for which the binding result was “binds”.
